Test system: ERα target genes TFF-1, c-Myc, cyclin D1
Assay: mRNA levels of ERα target genes by real-time PCR in BT474 cells
Format: cell-based, human
Details: BT474, 48 h
Protocol: FIG. 3A) BT474 cells were incubated with 10 μg/mL control and pRNA-HER2apt-siMED1 nanoparticles for 48 h, and MED1 mRNA level was determined by real-time PCR. FIG. 3B) BT474 cells were incubated directly with (as indicated by -) or transfected with indicated pRNAs using lipofectamine 2000. At 48 h post treatment, MED1 protein levels were determined by western blotting. FIG. 3C) BT474 cells were treated with 10 μg/mL pRNA nanoparticles for 48 h and assayed for cell viability by MTT assay. FIG. 3D) Cells were treated as above and seeded for migration, and FIG. 3E) invasion transwell assays. Scale bar: 50 μm. FIG. 3F) After pRNA treatment for 48 h, the mRNA levels of ERα target genes TFF-1, FIG. 3G) c-Myc, and FIG. 3H) cyclin D1 in BT474 cells were determined by real-time PCR.
Cell culture. Human breast cancer luciferase-overexpressing BT474 and MDA-MB-231 cells were maintained in DMEM medium (Hyclone, Thermo Scientific) supplemented with 10% fetal bovine serum (FBS, Sigma) and 1% penicillin/streptomycin (Corning) at 37° C. in a humidified atmosphere with 5% CO2.^53 • Generation of pRNA nanoparticles. The two strands of pRNA were synthesized with the DNA templates, which were amplified with overlapping primers (Sigma) by PCR methods, using a T7 promoter-controlled in vitro RNA transcription system as previously described^33 (Table 1). All the CTP and UTP used for synthesis of the pRNA nanoparticles were 2′-fluoro modified, except the control unmodified pRNA nanoparticles used in the stability assays. […] The hydrodynamic diameter and Tm value of pRNA nanoparticles were determined using dynamic light scattering and TGGE assay, respectively, as previously described.^54 The AFM imaging of the pRNA nanoparticles was performed at the University of Nebraska Medical Center imaging facility as previously reported.^55 Briefly, the pRNA nanoparticles (5 μL) were deposited on APS modified mica ^56 for a total of 2 min of incubation time. […] After washing three times with PBS, the cellular uptake of pRNAs was determined using a BD LSRFortessa™ flow cytometer. • Real-time PCR. […]

B1: pRNA-HER2apt-siMED1: 3-WJ pRNA nanoparticle bearing a HER2-targeting RNA aptamer and two different MED1 siRNAs; strands p1 SEQ ID NO: 3, p2 SEQ ID NO: 4 (nucleic acid)
chain 1: GGACAGUGAAAGUGAGUCAAAGGAUCAAUCAUGGCCAAAGAUGUUACUUUGAGAGCCUU
chain 2: GGCUCUCAAAGUAACAUCUAAGGCCAUGUGUAUGUGGGGGGAGGACGAUGCGGUCUGCUGUGCUUGAUAUGCCCCAGACGACUCGCCCCCCACAUACUUUGUUGAUCCAAUGACUCACUUUCACUGUCCUU
modifications: 2'-F modification; third strand may lack entry; pRNA-HER2apt-siMED1, p1; pRNA-HER2apt-siMED1, p2
significantly down-regulated: TFF-1 mRNA expression | c-Myc mRNA expression | cyclin D1 mRNA expression

Reference: patent US11110182B2, “Multifunctional RNA nanoparticles and methods for treating cancer and therapeutic resistant cancer” (University of Cincinnati, priority 2016, dated 2021)
